# Experimental data published in patent US12459974B2, “Bicyclic peptide ligands specific for Nectin-4” (priority 2018, dated 2025).
# Like-named read-outs stand apart in the source and are kept apart here. *1 amine or outer side, *2 acyl side, *3 side chain or, on linkers, in order; H or OH if unused. Where a SMILES comes first, the peptide text is derived from it. Bridges are numbered along the chain shown (N, C = ends). Roman numbers before positions name the chains, in order. [ ]: non-standard residue; d: D form. The star is where a group is joined. TATA = O=C(CC[*:1])N1CN(C(=O)CC[*:2])CN(C(=O)CC[*:3])C1; Dolaproine = CO[C@@H]([C@@H]1CCCN1)[C@@H](C)C(=O)O; Dil = CC[C@H](C)[C@H](NC)[C@@H](CC(=O)O)OC; 1Nal = N[C@@H](Cc1cccc2ccccc12)C(=O)O; X3 = O=C(CCCC(=O)[*:2])NCCC(=O)[*:1]; PABC = O=C(OCc1ccc(N[*:1])cc1)[*:2]; X4 = C[C@@H](N*)[C@@H](O)c1ccccc1; Cya = N[C@@H](CS(=O)(=O)O)C(=O)O; Hyp = O=C(O)[C@@H]1C[C@@H](O)CN1; hArg = N=C(N)NCCCC[C@H](N)C(=O)O; Cit = NC(=O)NCCC[C@H](N)C(=O)O; NMeV = CN[C@H](C(=O)O)C(C)C; βAla = NCCC(=O)O; Sar = CNCC(=O)O
# Legend:
# [1] = system: NCI-H292 xenograft; assay: Example 1: in vivo efficacy in NCI-H292 xenograft (NSCLC model) in BALB/c nude mice; design: species or system Mus Musculus; conditions: 5 mg/kg
# Experimental: (§1) The major endpoint was to see if the tumor growth could be delayed or mice could be cured. Tumor volume was measured three times weekly in two dimensions using a caliper, and the volume was expressed in mm^3 using the formula: V=0.5 a×b^2 where a and b are the long and short diameters of the tumor, respectively. The tumor size was then used for calculations of T/C value. The T/C value (in percent) is an indication of antitumor effectiveness; T and C are the mean volumes of the treated and control groups, respectively, on a given day. TGI was calculated for each group using the formula: TGI (%)=[1−(Ti−T0)/(Vi−V0)]×100; Ti is the average tumor volume of a treatment group on a given day, T0 is the average tumor volume of the treatment group on the day of treatment start, Vi is the average tumor volume of the vehicle control group on the same day with Ti, and V0 is the average tumor volume of the vehicle group on the day of treatment start.
# (§2) A one-way ANOVA was performed to compare tumor volume among groups, and when a significant F-statistics (a ratio of treatment variance to the error variance) was obtained, comparisons between groups were carried out with Games-Howell test. All data were analyzed using GraphPad Prism 5.0. P<0.05 was considered to be statistically significant.
# The NCI-H292 tumor cells will be maintained in medium supplemented with 10% heat inactivated fetal bovine serum at 37° C. in an atmosphere of 5% CO2 in air. The tumor cells will be routinely subcultured twice weekly. The cells growing in an exponential growth phase will be harvested and counted for tumor inoculation.
# Each mouse will be inoculated subcutaneously at the right flank with NCI-H292 tumor cells (10×10^6) in 0.2 ml of PBS for tumor development. The animals will be randomized and treatment will be started when the average tumor volume reaches approximately 158-406 mm^3.
# [2] = system: HCT116 xenograft; assay: Example 9.2: in vivo efficacy in HCT116 xenograft in Balb/c nude mice; design: species or system Mus Musculus; conditions: 3 mg/kg biw
# [3] = system: MDA-MB-468 xenograft; assay: Example 9.4: in vivo efficacy in MDA-MB-468 xenograft in Balb/c nude mice; conditions: 5 mg/kg
# Experimental: as §1, §2
# • Species: Mus Musculus • Strain: Balb/c nude • Age: 6-8 weeks • Sex: female • Body weight: 18-22 g • Number of animals: 41 mice plus spare 3.1.2.
# The tumor cells were maintained in Leibovitz's L-15 medium supplemented with 10% heat inactivated fetal bovine serum at 37° C. in an atmosphere of 5% CO2 in air. The tumor cells were routinely subcultured twice weekly. The cells growing in an exponential growth phase were harvested and counted for tumor inoculation.
# 41 animals were randomized when the average tumor volume reached 196 mm^3.
# [4] = system: MDA-MB-468 xenograft; assay: Example 4: in vivo efficacy in MDA-MB-468 xenograft (breast cancer model) in Balb/c nude mice; design: species or system Mus Musculus; conditions: 5 mg/kg
# [5] = system: NCI-H292 xenograft; assay: Example 9.5: in vivo efficacy in NCI-H292 xenograft in Balb/c nude mice; design: species or system Mus Musculus; conditions: 5 mg/kg; day 9; average
# [6] = system: NCI-H526 xenograft; assay: Example 9.6: in vivo efficacy in NCI-H526 xenograft in Balb/c nude mice
# Experimental: as §1, §2
# • Species: Mus Musculus • Strain: Balb/c nude • Age: 6-8 weeks • Sex: female • Body weight: 18-22 g • Number of animals: 21 mice plus spare 3.1.2.
# The NCI-H526 cells were maintained in medium supplemented with 10% heat inactivated fetal bovine serum at 37° C. in an atmosphere of 5% CO2 in air. The tumor cells were routinely subcultured twice weekly. The cells growing in an exponential growth phase were harvested and counted for tumor inoculation.
# Each mouse was inoculated subcutaneously at the right flank with NCI-H526 tumor cells (5.0×10^6 in 0.2 ml of PBS for tumor development. 21 animals were randomized when the average tumor volume reached 181 mm^3. The test article administration and the animal numbers in each group were shown in the experimental design table.
# Tumor growth inhibition rate for test articles in the NCI-H526 xenograft model was calculated based on tumor volume measurements at day 14 after the start of the treatment.
# [7] = system: HT-1376 xenograft; assay: Example 2: in vivo efficacy in HT-1376 xenograft (bladder cancer model) in CB17-SCID mice; conditions: 3 mg/kg
# Experimental: as §1
# A one-way ANOVA was performed to compare tumor volume among groups, and when a significant F-statistics (a ratio of treatment variance to the error variance) was obtained, comparisons between groups were carried out with Games-Howell test. […] P<0.05 was considered to be statistically significant.
# • Species: Mus Musculus • Strain: CB17-SCID • Age: 6-8 weeks • Sex: female • Body weight: 18-22 g • Number of animals: 21-41 mice plus spare • Animal supplier: Shanghai LC Laboratory Animal Co., LTD.
# The HT-1376 tumor cells were maintained in vitro as a monolayer culture in EMEM medium supplemented with 10% heat inactivated fetal bovine serum at 37° C. in an atmosphere of 5% CO2 in air. The tumor cells were routinely subcultured twice weekly by trypsin-EDTA treatment.
# Each mouse was inoculated subcutaneously at the right flank with HT-1376 tumor cells (5×10^6) in 0.2 ml of PBS with matrigel (1:1) for tumor development. Animals were randomized when the average tumor volume reached 153-164 mm^3.
# Tumor growth inhibition rate for Test articles in the HT-1376 xenograft model was calculated based on tumor volume measurements at day 21 after the start of treatment.
# [8] = target: T1, human Nectin-4 (Homo sapiens, UniProt Q96NY8); assay: Nectin-4 Biacore SPR binding assay
# T1 sequence (Q96NY8 32-349): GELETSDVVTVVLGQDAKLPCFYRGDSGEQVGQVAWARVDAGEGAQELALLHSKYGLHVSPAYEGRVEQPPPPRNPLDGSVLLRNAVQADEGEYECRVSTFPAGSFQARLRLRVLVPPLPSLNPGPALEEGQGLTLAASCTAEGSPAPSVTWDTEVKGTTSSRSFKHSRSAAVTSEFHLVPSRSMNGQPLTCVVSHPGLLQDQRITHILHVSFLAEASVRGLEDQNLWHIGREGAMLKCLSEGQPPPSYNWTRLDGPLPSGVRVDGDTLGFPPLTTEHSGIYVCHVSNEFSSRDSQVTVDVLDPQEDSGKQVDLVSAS
# Experimental: Biacore experiments were performed to determine ka (M^−1 s^−1), kd (s^−1), KD (nM) values of monomeric peptides binding to human Necin-4 protein (obtained from Charles River).
# Human Nectin-4 (residues Gly32-Ser349; NCBI RefSeq: NP_112178.2) with a gp67 signal sequence and C-terminal FLAG tag was cloned into pFastbac-1 and baculovirus made using standard Bac-to-Bac™ protocols (Life Technologies). Sf21 cells at 1×10^6 ml^−1 in Excell-420 medium (Sigma) at 27° C. were infected at an MOI of 2 with a P1 virus stock and the supernatant harvested at 72 hours. […] The protein was eluted with 100 μg/ml FLAG peptide. The eluted protein was concentrated to 2 ml and loaded onto an S-200 Superdex column (GE Healthcare) in PBS at 1 ml/min. 2 ml fractions were collected and the fractions containing Nectin-4 protein were concentrated to 16 mg/ml.
# The protein was extensively desalted to remove uncoupled biotin using spin columns into PBS.
# For analysis of peptide binding, a Biacore 3000 instrument was used utilising a CM5 chip (GE Healthcare). Streptavidin was immobilized on the chip using standard amine-coupling chemistry at 25° C. with HBS-N (10 mM HEPES, 0.15 M NaCl, pH 7.4) as the running buffer. Briefly, the carboxymethyl dextran surface was activated with a 7 minute injection of a 1:1 ratio of 0.4 M 1-ethyl-3-(3-dimethylaminopropyl) carbodiimide hydrochloride (EDC)/0.1 M N-hydroxy succinimide (NHS) at a flow rate of 10 μl/min. For capture of streptavidin, the protein was diluted to 0.2 mg/ml in 10 mM sodium acetate (pH 4.5) and captured by injecting 120 μl of streptavidin onto the activated chip surface. Residual activated groups were blocked with a 7 minute injection of 1 M ethanolamine (pH 8.5) and biotinylated Nectin-4 captured to a level of 1,200-1,800 RU. Buffer was changed to PBS/0.05% Tween 20 and a dilution series of the peptides was prepared in this buffer with a final DMSO concentration of 0.5%. The top peptide concentration was 100 nM with 6 further 2-fold dilutions. The SPR analysis was run at 25° C. at a flow rate of 50 μl/min with 60 seconds association and dissociation between 400 and 1,200 seconds depending upon the individual peptide. Data were corrected for DMSO excluded volume effects. All data were double-referenced for blank injections and reference surface using standard processing procedures and data processing and kinetic fitting were performed using Scrubber software, version 2.0c (BioLogic Software). Data were fitted using simple 1:1 binding model allowing for mass transport effects where appropriate.
# [9] = system: MDA-MB-468 cell line; assay: Example 11: HCS assay, Nectin-4 BDC binding study; format: cell-based
# Experimental: HCS assay was used in Nectin-4 BDC binding study. Cells were incubated with test agent and then washed. Detection was by a fluorescent antibody to MMAE.
smiles,measurement,setting,value
"CC[C@H](C)[C@@H]([C@@H](CC(=O)N1CCC[C@H]1[C@H](OC)[C@@H](C)C(=O)N[C@H](C)[C@@H](O)c1ccccc1)OC)N(C)C(=O)[C@@H](NC(=O)[C@H](C(C)C)N(C)C(=O)OCc1ccc(NC(=O)[C@H](CCCNC(N)=O)NC(=O)[C@@H](NC(=O)CCCC(=O)NCCC(=O)N(C)CC(=O)N(C)CC(=O)N(C)CC(=O)N(C)CC(=O)N(C)CC(=O)N[C@H]2CSCCC(=O)N3CN4CN(C3)C(=O)CCSC[C@H](NC(=O)[C@@H](CC(=O)O)NC(=O)[C@H](Cc3ccccc3)NC(=O)[C@@H]3CCCN3C2=O)C(=O)N[C@@H](CCSC)C(=O)N[C@@H](CCCCNC(=N)N)C(=O)N[C@@H](CC(N)=O)C(=O)N[C@@H](Cc2c[nH]c3ccccc23)C(=O)N[C@@H](CO)C(=O)N[C@@H](Cc2c[nH]c3ccccc23)C(=O)N2CCC[C@H]2C(=O)N[C@@H]([C@@H](C)CC)C(=O)N[C@@H](Cc2c[nH]c3ccccc23)C(=O)N[C@H](C(N)=O)CSCCC4=O)C(C)C)cc1)C(C)C [BCY7683, MMAE-PABC-Cit-Val-Glutaryl-BCY7556] (I: [Sar][Sar][Sar][Sar][Sar]CPF[dD]CM[hArg]NWSWPIWC-NH2 / II: V[Cit][PABC][NMeV]V[Dil][Dolaproine]-X4; linker I:6-I:10-I:20 via TATA; linker I:N-II:N via X3)",bodyweight (in words),[1],severe bodyweight loss
"CC[C@H](C)[C@@H]([C@@H](CC(=O)N1CCC[C@H]1[C@H](OC)[C@@H](C)C(=O)N[C@H](C)[C@@H](O)c1ccccc1)OC)N(C)C(=O)[C@@H](NC(=O)[C@H](C(C)C)N(C)C(=O)OCc1ccc(NC(=O)[C@H](CCCNC(N)=O)NC(=O)[C@@H](NC(=O)CCCC(=O)NCCC(=O)N(C)CC(=O)N(C)CC(=O)N(C)CC(=O)N(C)CC(=O)N(C)CC(=O)N(C)CC(=O)N(C)CC(=O)N(C)CC(=O)N(C)CC(=O)N(C)CC(=O)N[C@H]2CSCCC(=O)N3CN4CN(C3)C(=O)CCSC[C@H](NC(=O)[C@@H](CCCNC(=N)N)NC(=O)[C@H](Cc3cccc5ccccc35)NC(=O)[C@@H]3CCCN3C2=O)C(=O)N[C@@H](CC(C)C)C(=O)N[C@@H](CCCCNC(=N)N)C(=O)N[C@@H](Cc2c[nH]cn2)C(=O)N[C@@H](Cc2c[nH]c3ccccc23)C(=O)N[C@@H](CO)C(=O)N[C@@H]([C@@H](C)O)C(=O)N2CCC[C@H]2C(=O)N2C[C@H](O)C[C@H]2C(=O)N[C@@H](Cc2c[nH]c3ccccc23)C(=O)N[C@H](C(N)=O)CSCCC4=O)C(C)C)cc1)C(C)C [BCY8253, MMAE-PABC-Cit-Val-Glutaryl-BCY8231] (I: [Sar][Sar][Sar][Sar][Sar][Sar][Sar][Sar][Sar][Sar]CP[1Nal][dR]CL[hArg]HWSTP[Hyp]WC-NH2 / II: V[Cit][PABC][NMeV]V[Dil][Dolaproine]-X4; linker I:11-I:15-I:25 via TATA; linker I:N-II:N via X3)",bodyweight loss,[2],15%
same,animal body weight (in words),[3],severe animal body weight loss
same,death,[3],found dead on day 20
same,bodyweight loss,"[1]; day 9, average",> 15%
same,animal body weight (in words),[4],severe animal body weight loss
same,death,[4],found dead on day 20
same,bodyweight loss,[5],> 15%
"CC[C@H](C)[C@@H]([C@@H](CC(=O)N1CCC[C@H]1[C@H](OC)[C@@H](C)C(=O)N[C@H](C)[C@@H](O)c1ccccc1)OC)N(C)C(=O)[C@@H](NC(=O)[C@H](C(C)C)N(C)C(=O)OCc1ccc(NC(=O)[C@H](CCCNC(N)=O)NC(=O)[C@@H](NC(=O)CCCC(=O)NCCC(=O)N(C)CC(=O)N(C)CC(=O)N(C)CC(=O)N(C)CC(=O)N(C)CC(=O)N(C)CC(=O)N(C)CC(=O)N(C)CC(=O)N(C)CC(=O)N(C)CC(=O)N[C@H]2CSCCC(=O)N3CN4CN(C3)C(=O)CCSC[C@H](NC(=O)[C@@H](CCCNC(=N)N)NC(=O)[C@H](Cc3cccc5ccccc35)NC(=O)[C@@H]3CCCN3C2=O)C(=O)N[C@@H](CCSC)C(=O)N[C@@H](CCCCNC(=N)N)C(=O)N[C@@H](CC(=O)O)C(=O)N[C@@H](Cc2c[nH]c3ccccc23)C(=O)N[C@@H](CO)C(=O)N[C@@H]([C@@H](C)O)C(=O)N2CCC[C@H]2C(=O)N2C[C@H](O)C[C@H]2C(=O)N[C@@H](Cc2c[nH]c3ccccc23)C(=O)N[C@H](C(N)=O)CSCCC4=O)C(C)C)cc1)C(C)C [BCY8255, MMAE-PABC-Cit-Val-Glutaryl-BCY8235] (I: [Sar][Sar][Sar][Sar][Sar][Sar][Sar][Sar][Sar][Sar]CP[1Nal][dR]CM[hArg]DWSTP[Hyp]WC-NH2 / II: V[Cit][PABC][NMeV]V[Dil][Dolaproine]-X4; linker I:11-I:15-I:25 via TATA; linker I:N-II:N via X3)",bodyweight loss,[2],15%
same,animal body weight (in words),[3],severe animal body weight loss
same,animal body weight (in words),[4],severe animal body weight loss
same,animal bodyweight loss,[6]; 3 mg/kg biw,over 15%
same,animal bodyweight loss,[6]; 5 mg/kg qw,over 15%
same,death,[7],found dead on day 16
"CSCC[C@@H]1NC(=O)[C@@H]2CSCCC(=O)N3CN(CN(C3)C(=O)CCSC[C@H](NC(=O)CN(C)C(=O)CN(C)C(=O)CN(C)C(=O)CN(C)C(=O)CN(C)C(=O)CN(C)C(=O)CN(C)C(=O)CN(C)C(=O)CN(C)C(=O)CN(C)C(=O)CCNC(C)=O)C(=O)N3CCC[C@H]3C(=O)N[C@@H](Cc3cccc4ccccc34)C(=O)N[C@H](CC(=O)O)C(=O)N2)C(=O)CCSC[C@@H](C(N)=O)NC(=O)[C@H](Cc2c[nH]c3ccccc23)NC(=O)[C@@H]2C[C@@H](O)CN2C(=O)[C@@H]2CCCN2C(=O)[C@H]([C@@H](C)O)NC(=O)[C@H](CO)NC(=O)[C@H](Cc2c[nH]c3ccccc23)NC(=O)[C@H](CC(=O)O)NC(=O)[C@H](CS(=O)(=O)O)NC1=O [BCY8277, Ac-[B-Ala][Sar10]-(SEQ ID NO: 178)] (Ac-[βAla][Sar][Sar][Sar][Sar][Sar][Sar][Sar][Sar][Sar][Sar]CP[1Nal][dD]CM[Cya]DWSTP[Hyp]WC-NH2; linker 12-16-26 via TATA; C-terminus assumed)",Kd,[8],5.99 nM
"CC[C@H](C)[C@@H]([C@@H](CC(=O)N1CCC[C@H]1[C@H](OC)[C@@H](C)C(=O)N[C@H](C)[C@@H](O)c1ccccc1)OC)N(C)C(=O)[C@@H](NC(=O)[C@@H](NC)C(C)C)C(C)C [MMAE, Monomethyl auristatin E, reference compound] (H-[NMeV]V[Dil][Dolaproine]-X4)",binding affinity on MDA-MB-468 cell line (in words),[9],almost no detectable binding affinity
same,Max fluorescent intensity,"[9]; MDA-MB-468 cell line, fluorescent antibody to MMAE",2.95
same,Kd,"[9]; MDA-MB-468 cell line, historical data, read-out: Historical Kd",> 10 µM
same,Kd,"[9]; MDA-MB-468 cell line, read-out: Kd",> 10 µM
same,retention on the cells (in words),[9]; detection by a fluorescent antibody to MMAE,minimal retention
